One molecule from patent US20050265995A1 (MUSC FOUNDATION FOR RESEARCH DEVELOPMENT, published 2005) can be followed below.

This test deals with T1, dipeptidylpeptidase IV (DPPIV) expressed on rat proximal tubular epithelial cells (PTEC) (rat, UniProt P14740 1-767).
T1 construct: whole, on cells; also called K9/9 antigen; glycoprotein expressed on rat glomerular epithelial cells and PTEC
The experiment in a line: in vivo biodistribution of 125I-labelled protein in rats, 48 h after tail vein injection.

T1 sequence (P14740 whole entry): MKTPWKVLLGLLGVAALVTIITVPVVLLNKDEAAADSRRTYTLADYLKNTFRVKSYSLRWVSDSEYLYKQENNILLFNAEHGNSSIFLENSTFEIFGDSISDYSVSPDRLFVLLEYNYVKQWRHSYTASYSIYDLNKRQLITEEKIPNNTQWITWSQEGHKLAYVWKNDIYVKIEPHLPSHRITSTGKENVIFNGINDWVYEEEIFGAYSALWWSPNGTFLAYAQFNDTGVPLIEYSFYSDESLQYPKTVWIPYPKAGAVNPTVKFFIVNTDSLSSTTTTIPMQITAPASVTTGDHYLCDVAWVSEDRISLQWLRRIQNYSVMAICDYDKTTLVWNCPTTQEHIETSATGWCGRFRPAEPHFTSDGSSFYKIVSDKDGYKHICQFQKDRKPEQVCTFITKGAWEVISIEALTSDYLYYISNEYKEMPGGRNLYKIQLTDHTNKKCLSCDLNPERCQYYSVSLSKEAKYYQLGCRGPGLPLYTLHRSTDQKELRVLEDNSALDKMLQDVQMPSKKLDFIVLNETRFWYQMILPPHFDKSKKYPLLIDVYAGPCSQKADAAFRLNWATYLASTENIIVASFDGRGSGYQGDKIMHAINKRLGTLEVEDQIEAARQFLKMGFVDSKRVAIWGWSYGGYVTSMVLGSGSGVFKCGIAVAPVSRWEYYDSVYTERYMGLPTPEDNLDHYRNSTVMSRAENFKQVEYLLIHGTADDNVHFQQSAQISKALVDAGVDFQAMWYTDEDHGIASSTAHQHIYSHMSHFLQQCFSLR
Experimental: Biodistribution studies were performed using standard procedures for determining tissue distribution of injected radiolabeled proteins (41, 33). […] After 48 h, a blood sample was taken, and major organs were removed, shredded, washed in PBS containing 10 mM EDTA, weighed, and counted. Targeting specificity was determined as percentage of cpm per gram of tissue divided by total injected cpm per gram of body weight.

B1: soluble untargeted Crry (sCrry) (other, rat, UniProt Q63135 36-482, looked up)
chain: GQCPAPPLFPYAKPINPTDESTFPVGTSLKYECRPGYIKRQFSITCEVNSVWTSPQDVCIRKQCETPLDPQNGIVHVNTDIRFGSSITYTCNEGYRLIGSSSAMCIISDQSVAWDAEAPICESIPCEIPPSIPNGDFFSPNREDFHYGMVVTYQCNTDARGKKLFNLVGEPSIHCTSIDGQVGVWSGPPPQCIELNKCTPPHVENAVIVSKNKSLFSLRDMVEFRCQDGFMMKGDSSVYCRSLNRWEPQLPSCFKVKSCGAFLGELPNGHVFVPQNLQLGAKVTFVCNTGYQLKGNSSSHCVLDGVESIWNSSVPVCEQVICKLPQDMSGFQKGLQMKKDYYYGDNVALECEDGYTLEGSSQSQCQSDASWDPPLPKCVSQVICKLPQDMSGFQKGLQMKKDYYYGDNVALECEDGYTLEGSSQSQCQSDASWDPPLPKCVSRSNSG
modifications: 125I-iodinated in the biodistribution study
notes: extracellular domain; Untargeted control, expressed in Pichia; also called soluble Crry
Consider B1, for which the binding result is recorded as “no binding”.
